Literature values in article PMC3507713.

Molecular target: TRAIL (Homo sapiens) (UniProt P50591)
Sequence of UniProt P50591 (P50591 whole entry): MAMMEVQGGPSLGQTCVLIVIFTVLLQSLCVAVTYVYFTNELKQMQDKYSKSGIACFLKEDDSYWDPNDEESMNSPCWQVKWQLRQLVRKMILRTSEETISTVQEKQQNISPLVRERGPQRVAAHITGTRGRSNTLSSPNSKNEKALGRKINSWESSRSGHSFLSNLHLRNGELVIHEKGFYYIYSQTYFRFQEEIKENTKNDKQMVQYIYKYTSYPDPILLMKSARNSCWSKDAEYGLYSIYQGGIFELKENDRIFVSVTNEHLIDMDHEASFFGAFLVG

Kd: 400 nM
Substance: Osteoprotegerin (from UniProt O00300)
